First the molecules themselves.
B1: cp2 (peptide)
peptide: CPIRYEWDEFC
modifications: linker 1-11 via cADT (inferred)
notes: cyclic peptide from the second phage library CPXRYXWDXXC screened against BCL-2; they agree with I3, E6, E9 and F10 named in the text
B2: cp3 (peptide)
peptide: CPIRYPWDVEC
modifications: linker 1-11 via cADT (inferred)
notes: cyclic peptide from the second phage library CPXRYXWDXXC screened against BCL-XL; they agree with P6, V9 and E10 named in the text
B3: cp3 (peptide)
peptide: CPIRYPWDVEC-NH2
modifications: linker 1-11 via c‑ADT″
notes: cyclic peptide from the CPXRYXWDXXC phage library screened against BCL-XL; source: synthetic peptide
B4: chimeric human BCL-2 (residues 1-50 and 92-207, residues 35-50 replaced with residues 33-48 of BCL-XL) (domain or fragment, UniProt P10415 1-34, looked up)
chain: MAHAGRTGYDNREIVMKYIHYKLSQRGYEWDAGDNRTEAPEGTESEMETPVVHLTLRQAGDDFSRRYRRDFAEMSSQLHLTPFTARGRFATVVEELFRDGVNWGRIVAFFEFGGVMCVESVNREMSPLVDNIALWMTEYLNRHLHTWIQDNGGWDAFVELYGPSMR
modifications: biotin (biotinylated for SPR; site not stated)
notes: BCL-2, human, residues 1-34 of the chimera (internal loop 51-91 removed; residues 35-50 replaced with residues 33-48 of BCL-XL); BCL-XL, human, residues 33-48, in place of BCL-2 residues 35-50; BCL-2, human, residues 92-207; Biotinylated for SPR; used as such for crystals and fluorescence polarisation; also called BCL-2 WT; source: E. coli BL21 (DE3), purified (Ni-NTA, Superdex 75, RESOURCE Q, …)
B5: cp2 (peptide)
peptide: CPIRYEWDEFC-NH2
modifications: linker 1-11 via c‑ADT″
notes: cyclic peptide from the CPXRYXWDXXC phage library screened against BCL-2; source: synthetic peptide

One series deals with Jurkat cells. Format: cell-based. The method, then:
Supplementary Figure 10 Functional mechanism of CPs. a. IC50 values of venetoclax against A549, MGC-803 and PANC-1 cells, measured after 48 h treatment by a CellTiter-Glo assay and calculated using Prism 7.0 by a nonlinear-fit method. Data are presented as mean ± s.d.; n= 6 biological replicates. b. Western blot detecting the protein expression levels of BCL-2 and BCL-XL in A549, MGC-803, Daudi and Jurkat cells. c-d. Western blot detecting the protein expression levels of BCL-2 and BCL-XL in El4 cells (c) and RS4:11 cells (d). e. Western blot verifying the protein expression levels of exogenous BCL-2 in normal A549 cells (control) and those stably overexpressing BCL-2 WT or G101V mutant. f. qPCR results testing the overexpression of BCL-2 WT or G101V mutant in A549 stable cells. Data are presented as mean ± s.d.; n= 6 biological replicates; one-way ANOVA with Dunnett’s multiple comparisons test. g. Cell viability assay of Jurkat cells after 48 h treatment with DMSO, cp1-FITC, cp6-FITC, respectively. P1 represents the percentage of active cells. h. FITC signal tests after 48 h treatment with DMSO, cp1-FITC, cp6-FITC, respectively. P4 represents cells with the FITC signal. i-k. Structures of cp1-TAT, cp2-TAT and cp3-TAT. […]

The target of a further series is T1, BCL-2-D111A (human, UniProt P10415 1-34; Q07817 33-48; P10415 92-207, D111A, biotin (biotinylated for SPR; site not stated)).
T1 construct: BCL-2, human, residues 1-34 of the chimera, as m6; BCL-XL, human, residues 33-48, in place of BCL-2 residues 35-50; BCL-2, human, residues 92-207; Chimera m6 with the point mutation D111A made by mutagenic PCR; also called BCL-2 D111A mutant; source: E. coli BL21 (DE3), purified (Ni-NTA, Superdex 75, RESOURCE Q, Superdex 200)
Briefly: SPR; Biacore T200; biotinylated proteins immobilised on a CAP sensor chip; peptides flowed in multiple cycles (25-12800 nM, depending on the peptides) at 30 uL/min; 10 mM PBS, 50 uM EDTA, 0.05% Tween-20, 25 °C; affinity fitting, 1:1 binding model. Conditions: both partners purified.

The next series deals with T2, BCL-2-G101V (human, UniProt P10415 1-34; Q07817 33-48; P10415 92-207, G101V, biotin (biotinylated for SPR; site not stated)).
T2 construct: BCL-2, human, residues 1-34 of the chimera, as m6; BCL-XL, human, residues 33-48, in place of BCL-2 residues 35-50; BCL-2, human, residues 92-207; Chimera m6 with the venetoclax-resistant clinical mutation G101V; also called BCL-2 G101V mutant; source: E. coli BL21 (DE3), purified (Ni-NTA, Superdex 75, RESOURCE Q, Superdex 200)
Described as above. The following applies: both partners purified.

A further series addresses T3, BCL-2-F104L (human, UniProt P10415 1-34; Q07817 33-48; P10415 92-207, F104L, biotin (biotinylated for SPR; site not stated)).
T3 construct: BCL-2, human, residues 1-34 of the chimera, as m6; BCL-XL, human, residues 33-48, in place of BCL-2 residues 35-50; BCL-2, human, residues 92-207; Chimera m6 with F104L, a drug-resistant mutation found in a mouse model (residue number of the human protein); also called BCL-2 F104L mutant; source: E. coli BL21 (DE3), purified (Ni-NTA, Superdex 75, RESOURCE Q, Superdex 200)
The description is as above. The following applies: both partners purified.

Series [1] deals with T4, human BCL-XL (residues 1-210, with 27-81 and 210-233 removed) (human, UniProt Q07817-1 1-209, 27-81 removed, biotin (biotinylated for SPR; site not stated)).
T4 construct: BCL-XL, human; printed as residues 1-210, with 27-81 and 210-233 removed (so the last residue is 209 or 210); source: E. coli BL21 (DE3), purified (Ni-NTA, Superdex 75, RESOURCE Q, Superdex 200)
The description is as above. Conditions: both partners purified.

The target in a further series is T5, BCL-w (residues 6-152) (human, UniProt Q92843 6-152, biotin (biotinylated for SPR; site not stated)).
T5 construct: source: E. coli BL21 (DE3), purified (Ni-NTA, Superdex 75, RESOURCE Q, Superdex 200)
T5 sequence (looked up): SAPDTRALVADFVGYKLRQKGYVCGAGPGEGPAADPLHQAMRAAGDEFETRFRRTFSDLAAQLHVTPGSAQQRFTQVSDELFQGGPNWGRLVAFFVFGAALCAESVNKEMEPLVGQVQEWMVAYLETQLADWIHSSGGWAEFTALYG
Described as above. Conditions: both partners purified.

Series [2] has as its target B4. The description is as above. Conditions: both partners purified.
The target in a further series is T6, BCL-2-D103Y (human, UniProt P10415 1-34; Q07817 33-48; P10415 92-207, D103Y, biotin (biotinylated for SPR; site not stated)).
T6 construct: BCL-2, human, residues 1-34 of the chimera, as m6; BCL-XL, human, residues 33-48, in place of BCL-2 residues 35-50; BCL-2, human, residues 92-207; Chimera m6 with the clinical mutation D103Y; source: E. coli BL21 (DE3), purified (Ni-NTA, Superdex 75, RESOURCE Q, Superdex 200)
The description is as above. Conditions: both partners purified.

Series [3] has as its target T7, chimeric human BCL-2 (residues 1-50 and 92-207, residues 35-50 replaced with residues 33-48 of BCL-XL) (human, UniProt P10415 1-34; Q07817-1 33-48; P10415 92-207, biotinylated for the SPR assays (sites not given)).
T7 construct: BCL-2, human, residues 1-34 (residues 35-50 are replaced, see next part); BCL-XL, human, residues 33-48, replacing residues 35-50 of BCL-2; BCL-2, human, residues 92-207 (internal loop 51-91 removed); also called BCL-2 WT; source: E. coli BL21 (DE3), purified (Ni-NTA, Superdex 75, RESOURCE Q, Superdex 200)
T7 chain (looked up): B4 chain
Briefly: fluorescence polarisation; competition: cp2-F/BCL-2 complexes (20/400 nM) or cp3-F/BCL-XL complexes (20/600 nM) treated with unlabelled peptides from 1.0 nM to 30.0 uM; 1x PBS pH 7.4, room temperature, 10 min; Ki calculated from EC50, one-site competitive model. The following applies: both partners purified.

Series [4] deals with T8, human BCL-XL (residues 1-210, with 27-81 and 210-233 removed) (human, UniProt Q07817-1 1-210, 27-81 removed, biotinylated for the SPR assays (sites not given)).
T8 construct: BCL-XL, human, residues 1-210 with the loop 27-81 removed; source: E. coli BL21 (DE3), purified (Ni-NTA, Superdex 75, RESOURCE Q, Superdex 200)
The description is as above. Conditions: both partners purified.

The next series addresses T9, cp2-F (linker 1-11 via ADT (ClAc-3) (inferred); reading uncertain; also: modified by ClAc-3, printed as CPIRYEWDEFCG{K(FITC)}).
T9 construct: also called cp2-FITC; source: synthetic peptide
T9 peptide: CPIRYEWDEFCGK(FITC′)
Briefly: fluorescence polarisation; direct binding: 20 nM FITC-labelled peptide, protein 60-1000 nM, 1x PBS pH 7.4, room temperature, 10 min. The following applies: both partners purified.

Starred links: 1 amine or outer side, 2 acyl side, 3 side chain; linkers in the order of their positions; H or OH if unused. Positions of bridges follow the written chain, without caps; N, C: chain ends. Residues, ends and D or L forms follow the SMILES beside them. Primed or numbered codes have the meaning given here. No end group written: not given here. *: point of attachment. X1 = O=C(C[*:2])NCCNC(=O)c1ccc(C2=N[C@H](C(=O)[*:1])CS2)cc1; FITC = O=C1OC2(c3ccc(O)cc3Oc3cc(O)ccc32)c2ccc(NC(=S)*)cc21; cADT = 2-aryl-4,5-dihydrothiazole (ADT) linker; c‑ADT″ = 2-aryl-4,5-dihydrothiazole linker; FITC′ = fluorescein isothiocyanate; ADT (ClAc-3) = not defined here

Results on seven molecules are retold here after paper PMC10874388, “Cyclic peptides discriminate BCL-2 and its clinical mutants from BCL-XL by engaging a single-residue discrepancy” (Nature Communications, 2024).

T2 sequence (P10415 other isoform, or with tags, fused parts or gaps G101V | G101V | G101V G101V): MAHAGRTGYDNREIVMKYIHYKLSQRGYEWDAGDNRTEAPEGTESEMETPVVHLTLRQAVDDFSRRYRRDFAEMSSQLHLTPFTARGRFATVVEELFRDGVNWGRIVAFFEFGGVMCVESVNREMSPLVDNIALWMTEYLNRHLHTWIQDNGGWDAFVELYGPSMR
T4 sequence (Q07817 other isoform, or with tags, fused parts or gaps 27-81 removed | 27-81 removed): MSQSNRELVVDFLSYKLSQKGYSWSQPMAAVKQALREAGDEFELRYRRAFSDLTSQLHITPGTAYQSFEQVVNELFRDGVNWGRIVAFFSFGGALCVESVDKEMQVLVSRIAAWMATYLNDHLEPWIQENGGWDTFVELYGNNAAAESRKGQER
T8 sequence (Q07817 other isoform, or with tags, fused parts or gaps 27-81 removed | 27-81 removed): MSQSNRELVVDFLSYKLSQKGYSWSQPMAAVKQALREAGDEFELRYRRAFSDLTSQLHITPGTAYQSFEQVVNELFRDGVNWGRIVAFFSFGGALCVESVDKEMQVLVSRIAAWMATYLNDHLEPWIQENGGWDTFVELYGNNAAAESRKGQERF
T6 sequence (P10415 other isoform, or with tags, fused parts or gaps D103Y | D103Y | D103Y D103Y): as the sequence (P10415 other isoform, or with tags, fused parts or gaps G101V | G101V | G101V G101V) above, with V60G, D62Y counted along it
T1 sequence (P10415 other isoform, or with tags, fused parts or gaps D111A | D111A | D111A D111A): as the sequence (P10415 other isoform, or with tags, fused parts or gaps G101V | G101V | G101V G101V) above, with V60G, D70A counted along it

Consider “cp6-FITC: FITC-labeled cp6; CPARYFWDYKCGK(FITC) (CPARYFWDYKCGK(FITC′); not fully specified (bridges); printed as CPARYFWDYKCGK(FITC); cysteine pairing not given here)”, for which the “Penetration efficiency (FITC signal in cells)” value in the series on Jurkat cells is given as “relatively low penetration efficiency”.
Still for that read-out and setting: with `C[C@@H]1NC(=O)[C@@H]2CCCN2C(=O)[C@@H]2CSC(=N2)c2ccc(cc2)C(=O)NCCNC(=O)CSC[C@@H](C(=O)NCC(=O)N[C@@H](CCCCNC(=S)Nc2ccc3c(c2)C(=O)OC32c3ccc(O)cc3Oc3cc(O)ccc32)C(N)=O)NC(=O)[C@H](CCC(=O)O)NC(=O)[C@H](Cc2ccc(O)cc2)NC(=O)[C@H](CC(=O)O)NC(=O)[C@H](Cc2c[nH]c3ccccc23)NC(=O)CNC(=O)[C@H](Cc2ccc(O)cc2)NC(=O)[C@H](CCCNC(=N)N)NC1=O` [cp1-FITC] (PARYGWDYECGK(FITC)-NH2; linker N-10 via X1) the entry was “relatively low penetration efficiency”.
Regarding B1, the Kd with BCL-2-D111A is 120 nM; in the series with BCL-2-G101V it was 300 nM; with BCL-2-F104L, 260 nM; in series [1], 730 nM; in the series with BCL-w (residues 6-152), 1450 nM; in [2] it was 200 nM. In the series with BCL-2-D103Y, this molecule came in with a Kd of 210 nM.
For B2, the equilibrium dissociation constant (Kd) worked out at 90 nM with BCL-2-D111A; 660 nM with BCL-2-G101V; 710 nM with BCL-2-F104L; 90 nM in series [1]; 220 nM with BCL-w (residues 6-152); 240 nM in series [2]. The Kd with BCL-2-D103Y was 340 nM.
For the molecule B3, the Ki in [3] was 152 nM; in series [4], 333 nM.
For B4, the binding result in the series with cp2-F is “binds”.
On to B5, for which the Ki is 22.5 nM in series [3] and 682 nM in [4].
